Source: paper doi:10.1101/2024.05.03.592409 (bioRxiv, 2024)
Blank lines part the entries; values can stand above or below the molecule they belong to.

Tests used:
Test in all cases: PIE-FCCS
[1] = biological target: GCN4 (membrane protein construct, live-cell dimer control)
HER2 = HER2 (human, UniProt P04626 23-1255)
HER3 = HER3 (human, UniProt P21860 20-1342)
EGFR = EGFR (human, UniProt P00533 25-1210)

HER3, sequence (P21860 20-1342): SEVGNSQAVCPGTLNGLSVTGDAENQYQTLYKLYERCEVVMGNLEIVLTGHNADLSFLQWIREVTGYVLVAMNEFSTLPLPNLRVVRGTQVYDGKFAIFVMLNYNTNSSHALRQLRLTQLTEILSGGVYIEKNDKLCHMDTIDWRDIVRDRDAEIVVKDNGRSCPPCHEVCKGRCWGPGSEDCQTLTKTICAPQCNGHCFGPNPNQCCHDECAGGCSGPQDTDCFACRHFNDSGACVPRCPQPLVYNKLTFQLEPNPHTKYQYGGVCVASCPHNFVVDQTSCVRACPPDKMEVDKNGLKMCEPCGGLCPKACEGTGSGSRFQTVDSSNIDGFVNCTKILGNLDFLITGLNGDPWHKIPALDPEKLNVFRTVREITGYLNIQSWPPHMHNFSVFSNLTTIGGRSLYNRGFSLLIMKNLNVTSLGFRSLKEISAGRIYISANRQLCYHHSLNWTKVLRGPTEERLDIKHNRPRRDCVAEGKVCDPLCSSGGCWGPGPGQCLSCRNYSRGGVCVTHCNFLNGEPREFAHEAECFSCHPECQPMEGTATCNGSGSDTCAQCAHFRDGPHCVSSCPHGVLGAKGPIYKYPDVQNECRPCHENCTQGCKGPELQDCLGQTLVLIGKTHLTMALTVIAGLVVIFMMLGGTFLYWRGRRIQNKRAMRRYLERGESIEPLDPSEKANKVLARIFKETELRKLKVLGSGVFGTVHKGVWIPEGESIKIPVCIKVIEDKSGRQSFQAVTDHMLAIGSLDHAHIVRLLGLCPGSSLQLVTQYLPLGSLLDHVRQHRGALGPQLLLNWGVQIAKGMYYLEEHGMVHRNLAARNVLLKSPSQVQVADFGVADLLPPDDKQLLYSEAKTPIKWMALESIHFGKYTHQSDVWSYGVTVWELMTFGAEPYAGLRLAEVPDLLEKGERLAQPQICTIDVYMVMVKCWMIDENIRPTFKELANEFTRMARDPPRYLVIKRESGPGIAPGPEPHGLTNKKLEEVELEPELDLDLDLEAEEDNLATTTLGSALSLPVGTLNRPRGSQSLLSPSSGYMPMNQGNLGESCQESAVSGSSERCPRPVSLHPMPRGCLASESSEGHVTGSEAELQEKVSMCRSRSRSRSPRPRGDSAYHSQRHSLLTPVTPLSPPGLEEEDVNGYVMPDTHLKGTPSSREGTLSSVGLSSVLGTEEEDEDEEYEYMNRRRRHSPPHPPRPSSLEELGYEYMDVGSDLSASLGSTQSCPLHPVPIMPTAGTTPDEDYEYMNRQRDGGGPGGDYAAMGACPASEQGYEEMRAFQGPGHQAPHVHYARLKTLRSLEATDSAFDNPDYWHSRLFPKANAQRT

- median fc (fraction of cross-correlation) [1]: 0.15
- stoichiometry N [1]: 2
Molecule: GCN4 (membrane protein construct, live-cell dimer control)

- median fc (fraction of cross-correlation) (HER2): 0.17
- median fc (fraction of cross-correlation) (HER3): 0.11
- median fc (fraction of cross-correlation) (EGFR): 0.17
B1: HER4 (receptor)
chain: QSVCAGTENKLSSLSDLEQQYRALRKYYENCEVVMGNLEITSIEHNRDLSFLRSVREVTGYVLVALNQFRYLPLENLRIIRGTKLYEDRYALAIFLNYRKDGNFGLQELGLKNLTEILNGGVYVDQNKFLCYADTIHWQDIVRNPWPSNLTLVSTNGSSGCGRCHKSCTGRCWGPTENHCQTLTRTVCAEQCDGRCYGPYVSDCCHRECAGGCSGPKDTDCFACMNFNDSGACVTQCPQTFVYNPTTFQLEHNFNAKYTYGAFCVKKCPHNFVVDSSSCVRACPSSKMEVEENGIKMCKPCTDICPKACDGIGTGSLMSAQTVDSSNIDKFINCTKINGNLIFLVTGIHGDPYNAIEAIDPEKLNVFRTVREITGFLNIQSWPPNMTDFSVFSNLVTIGGRVLYSGLSLLILKQQGITSLQFQSLKEISAGNIYITDNSNLCYYHTINWTTLFSTINQRIVIRDNRKAENCTAEGMVCNHLCSSDGCWGPGPDQCLSCRRFSRGRICIESCNLYDGEFREFENGSICVECDPQCEKMEDGLLTCHGPGPDNCTKCSHFKDGPNCVEKCPDGLQGANSFIFKYADPDRECHPCHPNCTQGCNGPTSHDCIYYPWTGHSTLPQHARTPLIAAGVIGGLFILVIVGLTFAVYVRRKSIKKKRALRRFLETELVEPLTPSGTAPNQAQLRILKETELKRVKVLGSGAFGTVYKGIWVPEGETVKIPVAIKILNETTGPKANVEFMDEALIMASMDHPHLVRLLGVCLSPTIQLVTQLMPHGCLLEYVHEHKDNIGSQLLLNWCVQIAKGMMYLEERRLVHRDLAARNVLVKSPNHVKITDFGLARLLEGDEKEYNADGGKMPIKWMALECIHYRKFTHQSDVWSYGVTIWELMTFGGKPYDGIPTREIPDLLEKGERLPQPPICTIDVYMVMVKCWMIDADSRPKFKELAAEFSRMARDPQRYLVIQGDDRMKLPSPNDSKFFQNLLDEEDLEDMMDAEEYLVPQAFNIPPPIYTSRARIDSNRSEIGHSPPPAYTPMSGNQFVYRDGGFAAEQGVSVPYRAPTSTIPEAPVAQGATAEIFDDSCCNGTLRKPVAPHVQEDSSTQRYSADPTVFAPERSPRGELDEEGYMTPMRDKPKQEYLNPVEENPFVSRRKNGDLQALDNPEYHNASNGPPKAEDEYVNEPLYLNTFANTLGKAEYLKNNILSMPEKAKKAFDNPDYWNHSLPPRSTLQHPDYLQEYSTKYFYKQNGRIRPIVAENPEYLSEFSLKPGTVLPPPPYRHRNTVV
